In series [1] the test system is SdbhKSKIP241-245RVRKS (Sulfolobus acidocaldarius (Dbh); Sso7d source organism not stated). The series is described as follows: fluorescence titration (2AP). The settings on record: 2-aminopurine at the primer terminus; 50 mM Tris acetate pH 7.5, 50 mM sodium acetate, 10 mM magnesium acetate, 5 mM DTT, 0.05% Tween 20, 25 °C; 100 nM 2AP-P/T, 0-1000 nM pol.
Series [2] relates to SdbhI62V (Sulfolobus acidocaldarius (Dbh); Sso7d source organism not stated). The series is described as follows: fluorescence titration (2AP). The following applies: 2-aminopurine at the primer terminus; 50 mM Tris acetate pH 7.5, 50 mM sodium acetate, 10 mM magnesium acetate, 5 mM DTT, 0.05% Tween 20, 25 °C; 100 nM 2AP-P/T, 0-1000 nM pol.
Series [3] relates to SdbhM76I (Sulfolobus acidocaldarius (Dbh); Sso7d source organism not stated). The series is described as follows: fluorescence titration (2AP). The following applies: 2-aminopurine at the primer terminus; 50 mM Tris acetate pH 7.5, 50 mM sodium acetate, 10 mM magnesium acetate, 5 mM DTT, 0.05% Tween 20, 25 °C; 100 nM 2AP-P/T, 0-1000 nM pol.
For series [4], the system named is SdbhK337R (Sulfolobus acidocaldarius (Dbh); Sso7d source organism not stated). The series is described as follows: fluorescence titration (2AP). The following applies: 2-aminopurine at the primer terminus; 50 mM Tris acetate pH 7.5, 50 mM sodium acetate, 10 mM magnesium acetate, 5 mM DTT, 0.05% Tween 20, 25 °C; 100 nM 2AP-P/T, 0-1000 nM pol.
Series [5] has as its system SdbhY249I (Sulfolobus acidocaldarius (Dbh); Sso7d source organism not stated). The series is described as follows: fluorescence titration (2AP). The settings on record: 2-aminopurine at the primer terminus; 50 mM Tris acetate pH 7.5, 50 mM sodium acetate, 10 mM magnesium acetate, 5 mM DTT, 0.05% Tween 20, 25 °C; 100 nM 2AP-P/T, 0-1000 nM pol.
The test system of series [6] is SdbhL250V (Sulfolobus acidocaldarius (Dbh); Sso7d source organism not stated). The series is described as follows: fluorescence titration (2AP). The settings on record: 2-aminopurine at the primer terminus; 50 mM Tris acetate pH 7.5, 50 mM sodium acetate, 10 mM magnesium acetate, 5 mM DTT, 0.05% Tween 20, 25 °C; 100 nM 2AP-P/T, 0-1000 nM pol.
The subject of series [7] is Sdbh (Sso7d-Dbh fusion) (Sulfolobus acidocaldarius (Dbh); Sso7d source organism not stated). The series is described as follows: fluorescence titration (2AP). The settings on record: 2-aminopurine at the primer terminus; 50 mM Tris acetate pH 7.5, 50 mM sodium acetate, 10 mM magnesium acetate, 5 mM DTT, 0.05% Tween 20, 25 °C; 100 nM 2AP-P/T, 0-1000 nM pol.
The subject of series [8] is SdbhA221S (Sulfolobus acidocaldarius (Dbh); Sso7d source organism not stated). The series is described as follows: fluorescence titration (2AP). The following applies: 10 mM Mg2+; 2-aminopurine at the primer terminus; 50 mM Tris acetate pH 7.5, 50 mM sodium acetate, 10 mM magnesium acetate, 5 mM DTT, 0.05% Tween 20, 25 °C; 100 nM 2AP-P/T, 0-1000 nM pol.
Series [9] has as its system SdbhT37F (Sulfolobus acidocaldarius (Dbh); Sso7d source organism not stated). The series is described as follows: fluorescence titration (2AP). The following applies: 2-aminopurine at the primer terminus; 50 mM Tris acetate pH 7.5, 50 mM sodium acetate, 10 mM magnesium acetate, 5 mM DTT, 0.05% Tween 20, 25 °C; 100 nM 2AP-P/T, 0-1000 nM pol.
The test system of series [10] is Dbh (WT) (Sulfolobus acidocaldarius). The series is described as follows: fluorescence titration (2AP). The following applies: 2-aminopurine at the primer terminus; 50 mM Tris acetate pH 7.5, 50 mM sodium acetate, 10 mM magnesium acetate, 5 mM DTT, 0.05% Tween 20, 25 °C; 100 nM 2AP-P/T, 0-1000 nM pol.
Substrate in series [11]: Nc1ccn([C@H]2C[C@H](O)[C@@H](COP(=O)(O)OP(=O)(O)OP(=O)(O)O)O2)c(=O)n1
The series is described as follows: steady-state single-nucleotide insertion, FAM-primer gel assay. Format: biochemical, Sulfolobus acidocaldarius. The following applies: opposite template G (correct), 1.0 μM primer-template, 20 nM pol, 5 mM MgCl2, 100 mM KCl, pH 7.5, 37 °C, apparent Km. The source says:
(§1) steady-state single-nucleotide insertion, FAM-primer gel assay on Dbh (WTDbh)

Substrate in series [12]: Nc1ncnc2c1ncn2[C@H]1C[C@H](O)[C@@H](COP(=O)(O)OP(=O)(O)OP(=O)(O)O)O1
Described as above. Format: biochemical, Sulfolobus acidocaldarius. The settings on record: opposite template G (incorrect, misinsertion), 1.0 μM primer-template, 20 nM pol, 5 mM MgCl2, 100 mM KCl, pH 7.5, 37 °C, apparent Km.
Description: as §1

Results on two molecules are retold here after article PMC5500549, “DNA binding strength increases the processivity and activity of a Y-Family DNA polymerase” (Scientific Reports, 2017).

As usually defined, the Kd is the concentration at which binding is half-saturated. A low value points to a tighter complex. By Km is commonly meant the substrate concentration at which the rate is half of its maximum. The Vmax is the top rate of the reaction or transport when substrate is in excess.

As for 2AP-P/T primer-template, the Kd in series [1] was determined as 34.8 nM; in series [2], 49.8 nM; in [3], 42.8 nM; in [4] it was 55.5 nM; in series [5], 56.2 nM; in series [6], 50.4 nM. The Kd in [7] was determined as 51.2 nM; in series [8] it was 47.5 nM; in series [9], 49.7 nM; in series [10] it was 54.8 nM.

B1: Dbh (WTDbh) (Sulfolobus acidocaldarius DSM 639) (protein)
chain: MIVIFVDFDYFFAQVEEVLNPQYKGKPLVVCVYSGRTKTSGAVATANYEARKLGVKAGMPIIKAMQIAPSAIYVPMRKPIYEAFSNRIMNLLNKHADKIEVASIDEAYLDVTNKVEGNFENGIELARKIKQEILEKEKITVTVGVAPNKILAKIIADKSKPNGLGVIRPTEVQDFLNELDIDEIPGIGSVLARRLNELGIQKLRDILSKNYNELEKITGKAKALYLLKLAQNKYSEPVENKSKIPHGRYLTLPYNTRDVKVILPYLKKAINEAYNKVNGIPMRITVIAIMEDLDILSKGKKFKHGISIDNAYKVAEDLLRELLVRDKRRNVRRIGVKLDNIIINKTNLSDFFDI
notes: synthetic gene, 6xHis tag (C-terminal by gene design, N-terminal by purification), expressed in E. coli BL21(DE3), Ni-NTA and Mono-S
B1: in series [11], the Km stood at 88.2 ± 12.0 µM and the Vmax is 0.001 µM/min. In series [12], the Km was found to be 215.2 ± 18.7 µM and the Vmax was determined as 1.9e-05 µM/min.
